The values that follow come from article PMC12457637, “An aptamer-drug conjugate for promising cancer therapy with comprehensive evaluation from rodents to non-human primates” (Signal Transduction and Targeted Therapy, 2025).

Like-named read-outs stand apart in the source and are kept apart here. Non-standard residues stand in square brackets, D forms with d. Residues, ends and D or L forms follow the SMILES beside them. *: point of attachment. Dolaproine = CO[C@@H]([C@@H]1CCCN1)[C@@H](C)C(=O)O; Dil = CC[C@H](C)[C@H](NC)[C@@H](CC(=O)O)OC; X1 = C[C@@H](N*)[C@@H](O)c1ccccc1; NMeV = CN[C@H](C(=O)O)C(C)C

Data set [1] deals with MIA PaCa-2 cells. As to the kind of experiment: 72-h cytotoxicity (MTS), MIA PaCa-2. In kind it is cell-based. The method, then: Cells were seeded in wells of a 96-well plate (6000 cells/well) and incubated overnight to allow for cell adherence. On the second day, 100 μL complete medium containing VcMMAE and Sgc8c-M (400, 200, 100, 50, 25, 12.5, and 6.25 nM), as well as MMAE (5, 2.5, 1.25, 0.625, 0.3125, 0.15625, and 0.078125 nM), were added to wells of a 96-well plate for an additional 72-h incubation at 37 °C. At the end of incubation, 100 μL of CellTiter 96® Aqueous One Solution Cell Proliferation Assay (MTS, Promega) solution (prepared by mixing 2 mL MTS with 9 mL of complete medium) were added to each well. The plates were then incubated for an additional 1–2 h to allow for the formation of formazan crystals. The absorbance of each well was measured at 490 nm using a Multi-Mode Microplate Reader (TECAN, SPARK) to assess cell viability. Cell viability was calculated as [OD490 (treatment) - OD490 (blank)]/[OD490 (nontreatment) - OD490 (blank)] × 100%.

For data set [2], the system named is MDA-MB-468 xenograft. Description: Antitumor efficacy, MDA-MB-468 xenograft. In kind it is in vivo, mice. Conditions: free MMAE at equivalent dose (0.359 mg/kg i.v.). The method, then:
(§1) In vivo therapeutic evaluations were performed to evaluate the antitumor effects of the PTK7-targeted ApDC Sgc8c-M with comparisons made between the chemotherapeutic drug paclitaxel and the ApDC’s toxic payload MMAE in most cases. […] All tumor models were established on female BALB/c nude mice. Briefly, a 50 μL suspension of tumor cells (SUM159: 5 × 10^6, MDA-MB-468: 1 × 10^7, MIA PaCa-2: 5 × 10^6, OVCAR3: 5 × 10^6, HT-29: 5 × 10^6, NCI-H1975: 5 × 10^6, A549: 5 × 10^6) mixed with an equal volume of Matrigel (BD) was injected s.c. into the right hind flank region of mice. For the TNBC PDX and pancreatic cancer PDX F4 and F5 models, 3–5 mm^3 of tumor fragments were implanted into the right hind flank region of mice. When tumor sizes reached approximately 100 mm^3–300 mm^3, the mice were randomly divided into control and treatment groups. Sgc8c-M (i.v.), paclitaxel (i.p.), MMAE (i.v.), or ADC h6M24-VcMMAE (i.v.) were administered to tumor-bearing mice respectively, and tumor volume and body weight were measured every 2 to 4 days following the initiation of treatment. […] Tumor volume was calculated according to the following equation: Tumor volume = (tumor length × tumor width^2)/2. TGI (%) was calculated as follows: TGI (%) = [1 – (mean of tumor volume in the treatment group)/(mean of tumor volume in the saline group)] × 100.

Details of data set [3]: method as in PMID 31877330. To be noted: cited from earlier work.
For data set [4], the system named is SUM159 xenograft. Description: Antitumor efficacy, SUM159 xenograft. It counts as in vivo, mice. Conditions: 10 mg/kg i.p., Fig. 2c. The method, then: as §1
For data set [5], the system named is TNBC PDX. As to the kind of experiment: Antitumor efficacy, TNBC PDX. Conditions: 10 mg/kg i.p. It counts as in vivo, mice. The procedure:
as §1

Data set [6] concerns the target T1, PTK7 (mouse, UniProt Q8BKG3 23-696).
T1 sequence: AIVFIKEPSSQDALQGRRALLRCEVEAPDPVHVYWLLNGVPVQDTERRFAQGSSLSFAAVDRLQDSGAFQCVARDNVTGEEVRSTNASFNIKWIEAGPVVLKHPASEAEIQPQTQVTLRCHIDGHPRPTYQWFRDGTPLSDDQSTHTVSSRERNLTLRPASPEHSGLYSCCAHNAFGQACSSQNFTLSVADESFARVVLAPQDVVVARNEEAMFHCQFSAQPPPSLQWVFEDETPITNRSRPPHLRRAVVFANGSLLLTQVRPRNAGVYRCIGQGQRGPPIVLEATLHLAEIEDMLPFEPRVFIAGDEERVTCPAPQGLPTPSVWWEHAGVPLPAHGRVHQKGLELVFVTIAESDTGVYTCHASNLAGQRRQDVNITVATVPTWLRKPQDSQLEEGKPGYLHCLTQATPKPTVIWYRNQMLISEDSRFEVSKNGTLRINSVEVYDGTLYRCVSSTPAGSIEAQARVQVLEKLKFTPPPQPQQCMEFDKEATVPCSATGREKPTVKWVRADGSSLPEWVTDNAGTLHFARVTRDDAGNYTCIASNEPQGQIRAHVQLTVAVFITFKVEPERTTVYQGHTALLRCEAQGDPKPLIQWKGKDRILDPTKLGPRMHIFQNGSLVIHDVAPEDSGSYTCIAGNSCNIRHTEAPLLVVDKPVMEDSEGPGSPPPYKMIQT
Description: SPR; 5 mM Mg2+; Kd only in figure; SPR (Biacore 8K, CM5): DPBS + 5 mM MgCl2, 10 uL/min, 180 s association and dissociation; temperature and pH of running buffer not stated. To be noted: protein: commercial; tags: His. (In general: SPR reads the build-up and loss of mass on a sensor chip optically.)

The target in data set [7] is T2, PTK7 (human, UniProt Q13308 31-704).
T2 sequence: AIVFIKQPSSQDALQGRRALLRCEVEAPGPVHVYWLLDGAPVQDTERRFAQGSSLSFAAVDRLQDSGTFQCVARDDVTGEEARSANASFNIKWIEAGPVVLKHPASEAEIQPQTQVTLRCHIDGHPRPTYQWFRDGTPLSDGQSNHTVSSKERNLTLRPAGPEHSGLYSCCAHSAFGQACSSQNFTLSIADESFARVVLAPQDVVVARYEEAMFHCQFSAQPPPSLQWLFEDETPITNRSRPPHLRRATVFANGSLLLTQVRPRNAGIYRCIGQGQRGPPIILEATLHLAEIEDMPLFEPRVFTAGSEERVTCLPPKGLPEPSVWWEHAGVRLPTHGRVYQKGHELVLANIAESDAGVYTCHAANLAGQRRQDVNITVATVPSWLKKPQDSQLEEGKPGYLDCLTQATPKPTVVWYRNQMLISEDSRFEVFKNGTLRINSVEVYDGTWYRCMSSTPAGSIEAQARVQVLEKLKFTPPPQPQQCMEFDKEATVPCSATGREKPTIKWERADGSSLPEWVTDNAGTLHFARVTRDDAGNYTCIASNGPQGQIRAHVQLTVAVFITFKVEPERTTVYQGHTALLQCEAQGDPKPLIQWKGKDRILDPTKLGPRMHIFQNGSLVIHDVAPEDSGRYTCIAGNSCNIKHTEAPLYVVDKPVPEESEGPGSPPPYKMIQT
The data set is described as above. Conditions: protein: commercial; tags: His.

Data set [8] has as its target T3, PTK7 (rat, UniProt A0A8I6AKN3 23-696). Described as above. Conditions: protein: commercial; tags: His.
For data set [9], the target named is T1, PTK7. As to the kind of experiment: SPR; 5 mM Mg2+; 400 nM; Kd only in figure; SPR (Biacore 8K, CM5): DPBS + 5 mM MgCl2, 10 uL/min, 180 s association and dissociation; temperature and pH of running buffer not stated. To be noted: protein: commercial; tags: His.
Data set [10] deals with T2, PTK7. Described as above. To be noted: protein: commercial; tags: His.
For data set [11], the target named is T3, PTK7. Described as above. To be noted: protein: commercial; tags: His.
The target in data set [12] is T4, human PTK7 (Homo sapiens, UniProt Q13308).
T4 construct: His; purchased Sino Biological 19399-H08H
T4 sequence (Q13308 31-704 limits assumed): T2 sequence
As to the kind of experiment: SPR binding to recombinant human PTK7. The source says: For SPR analysis, human (#19399-H08H, Sino Biological), mouse (HY-P78761, MCE), rat (HY-P78619, MCE), and cynomolgus monkey (#90979-C08H, Sino Biological) PTK7 proteins with His tags were immobilized on a carboxymethylated dextran CM5 chip on SPR (Cytiva Biacore 8 K). Sodium acetate buffer (NaAC) at pH 5.0/5.5 was used for human and cynomolgus monkey PTK7 proteins, while a pH of 4.5 was applied for mouse and rat PTK7 proteins. His protein was simultaneously immobilized on the CM5 chip as a control using pH 4.5 NaAC. The final concentration of all above proteins was 10 μg/mL. Unreacted carboxyl groups were subsequently deactivated using ethanolamine-HCl. Sgc8c were diluted to 25, 50, 100, 200, and 400 nM in running buffer (DPBS supplemented with 5 mM MgCl2), and Sgc8c-M and Ctrl-M were diluted to 400 nM. Sgc8c, Sgc8c-M, and Ctrl-M were sequentially injected over the immobilized surface from low to high concentrations for a 180-s association phase followed by a 180-s dissociation phase at a flow rate of 10 µL/min. The capture surface was regenerated after each cycle with a 30-s contact time of 1.5 M NaCl at a flow rate of 30 µL/min. The equilibrium dissociation constant (Kd) was subsequently analyzed by Biacore Insight Evaluation software.

Data set [13] addresses T2, PTK7. As to the kind of experiment: SPR; 5 mM Mg2+; 400 nM; SPR (Biacore 8K, CM5): DPBS + 5 mM MgCl2, 10 uL/min, 180 s association and dissociation; temperature and pH of running buffer not stated. Conditions: protein: commercial; tags: His.

Regarding `CC[C@H](C)[C@@H]([C@@H](CC(=O)N1CCC[C@H]1[C@H](OC)[C@@H](C)C(=O)N[C@H](C)[C@@H](O)c1ccccc1)OC)N(C)C(=O)[C@@H](NC(=O)[C@@H](NC)C(C)C)C(C)C` [MMAE, monomethyl auristatin E] (H-[NMeV]V[Dil][Dolaproine]-X1), the “IC50 lower than that of Sgc8c-M” value in data set [1] (MIA PaCa-2) is listed as “approximately 48 fold”. Moreover, 0.389 nM corresponded to half-maximal inhibition in data set [1] (MIA PaCa-2, 72-h incubation) (IC50). Also, in [2], the TGI (commonly the reduction of tumour growth relative to the control group) amounted to 76%. Also, in data set [3] (single administration of 0.16 mg/kg), the mortality (as a rule, the percentage killed) is 100%.
Turning to `CC(=O)O[C@H]1C(=O)[C@@]2(C)[C@H]([C@H](OC(=O)c3ccccc3)[C@]3(O)C[C@H](OC(=O)[C@H](O)[C@@H](NC(=O)c4ccccc4)c4ccccc4)C(C)=C1C3(C)C)[C@]1(OC(C)=O)CO[C@@H]1C[C@@H]2O` [paclitaxel], in data set [4], the “tumor growth relative to saline controls” value is recorded as “partially reduced tumor growth”. In addition, in [5], the “tumor growth compared to saline controls” value is on record as “failed to significantly inhibit tumor growth”.
Take ATCTAACTGCTGCGCCGCCGGGAAAATACTGTACGGTTAGA (structured_DNA) [Sgc8c]: the binding result in data set [6], in [7] and in data set [8] was “binds” throughout.
For the molecule ATCTAACTGCTGCGCCGCCGGGAAAATACTGTACGGTTAGA (structured_DNA, 3'-C6-S-maleimide MC-VC-PAB-MMAE conjugate) [Sgc8c-M], the binding result in data set [9], in data set [10] and in data set [11] was “binds” each time.

B1: h6M24-VcMMAE: PTK7-targeted ADC (DAR4): antibody of h6M24-vc0101 conjugated with the same MMAE payload (conjugate, chains of the INN, looked up)
VH: QVQLVQSGPEVKKPGASVKVSCKASGYTFTDYAVHWVRQAPGKRLEWIGVISTYNDYTYNNQDFKGRVTMTRDTSASTAYMELSRLRSEDTAVYYCARGNSYFYALDYWGQGTSVTVSS
VL: EIVLTQSPATLSLSPGERATLSCRASESVDSYGKSFMHWYQQKPGQAPRLLIYRASNLESGIPARFSGSGSGTDFTLTISSLEPEDFAVYYCQQSNEDPWTFGGGTKLEIK
modifications: vcMMAE payload, DAR4
Regarding B1, the Kd (as a rule, a measure of binding affinity in units of concentration) in data set [12] amounted to 3.18 nM.

B2: Disitamab vedotin: clinically approved ADC, anti-HER2 antibody conjugated with MMAE (conjugate, chains of the INN, looked up)
VH: EVQLVQSGAEVKKPGATVKISCKVSGYTFTDYYIHWVQQAPGKGLEWMGRVNPDHGDSYYNQKFKDKATITADKSTDTAYMELSSLRSEDTAVYFCARNYLFDHWGQGTLVTVSS
VL: DIQMTQSPSSVSASVGDRVTITCKASQDVGTAVAWYQQKPGKAPKLLIYWASIRHTGVPSRFSGSGSGTDFTLTISSLQPEDFATYYCHQFATYTFGGGTKVEIK
modifications: MMAE payload
notes: clinically approved ADC, anti-HER2 antibody conjugated with MMAE
With B2, the mortality in data set [3] (single injection of 18 mg/kg (approx. 0.35 mg/kg MMAE)) is given as 50%.
On to AGATTGGCATGTCATAAAAGGGCCGCCGCGTCGTCAATCTA (ssDNA, 3'-C6-S-maleimide MC-VC-PAB-MMAE conjugate) [Ctrl-M], for which the binding result in [13] is “no binding”.
